Results reported in article PMC6443809, “Integrin activation by the lipid molecule 25-hydroxycholesterol induces a proinflammatory response” (Nature Communications, 2019).

Key:
[1] = molecular target: T1, αvβ3 integrin (Homo sapiens, UniProt P05106+P06756); experiment: SPR (Biacore […], immobilized αvβ[…]); also 3H-25HC binding with fractalkine-CD competition and biotin-25HC pull-down
T1 construct: gene ITGAV; Purified human αvβ3 integrin protein; with integrin αv subunit (ITGAV)

[2] = molecular target: purified human αvβ3 integrin protein (human) (UniProt P06756); experiment: radioligand binding; modified ELISA-type competitive assay: αvβ3 integrin coated on 96-well plate (200 ng/well in PBS with 1 mM MnCl2, 16 h, 4 °C); fractalkine-CD (1000 ng/well in HEPES-Tyrodes buffer) or water added 2 h at room temperature, washed; then 3H-25HC in PBS/0.5% BSA 16 h at 4 °C; bound radioactivity counted
[3] = molecular target: collagen-I (Homo sapiens) (UniProt P02452); experiment: SPR; conditions: cited from earlier work
[4] = molecular target: phospholipase A2 (Homo sapiens) (UniProt P14555); experiment: SPR; conditions: cited from earlier work
[5] = molecular target: vitronectin (Homo sapiens) (UniProt P04004); experiment: SPR; conditions: cited from earlier work
[6] = molecular target: IGF1 (Homo sapiens) (UniProt P05019); experiment: SPR; conditions: cited from earlier work

With `C[C@H](CCCC(C)(C)O)[C@H]1CC[C@H]2[C@@H]3CC=C4C[C@@H](O)CC[C@]4(C)[C@H]3CC[C@]12C` [25HC, 25-hydroxycholesterol] the Kd [1] was 10.9 nM.

Work on “purified chemokine domain (CD) of recombinant human fractalkine protein (from UniProt P78423 25-397) (domain or fragment)” yielded a loss of 3H-25HC binding to immobilised αvβ3 integrin after pre-incubation with fractalkine-CD [2] of over 60%.

For α1β1 integrin (from UniProt P56199), the Kd [3] is listed as 24 nM.

For αvβ3 integrin (from UniProt P06756), the Kd [4] is listed as 211 nM, the Kd [5] is listed as 64 nM and the Kd [6] is listed as 31 nM.
